Target: mouse pro-IL-1β (mouse) (UniProt P10749)
Assay: cell-based or functional assay

Sequence of UniProt P10749 (P10749 whole entry): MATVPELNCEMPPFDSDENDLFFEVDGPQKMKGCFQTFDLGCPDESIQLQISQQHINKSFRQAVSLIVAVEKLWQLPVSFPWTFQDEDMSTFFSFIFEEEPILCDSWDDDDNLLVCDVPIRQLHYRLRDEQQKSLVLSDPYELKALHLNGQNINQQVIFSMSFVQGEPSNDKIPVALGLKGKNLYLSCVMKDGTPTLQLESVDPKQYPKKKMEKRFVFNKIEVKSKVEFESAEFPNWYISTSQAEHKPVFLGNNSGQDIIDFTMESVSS

secretion of mature IL-1β into the culture medium (ELISA), COS-7 cells: 80 to 250 pg/mL
Substance: pro-caspase-1 (full-length, wild-type) (from UniProt P29466 1-404) (enzyme)

Source: patent US20020176853A1
